For 9 molecules, Kd, koff and kon results are on record in PMC10663500, “High-throughput analysis system of interaction kinetics for data-driven antibody design” (Scientific Reports, 2023).

Changes are numbered by the printed parent chain. Bounds are passed on as bounds.

B1: toripalimab Fab L.P100F (Fab, V domains shown)
VH: QGQLVQSGAEVKKPGASVKVSCKASGYTFTDYEMHWVRQAPIHGLEWIGVIESETGGTAYNQKFKGRVTITADKSTSTAYMELSSLRSEDTAVYYCAREGITTVATTYYWYFDVWGQGTTVTVSS
VL: DVVMTQSPLSLPVTLGQPASISCRSSQSIVHSNGNTYLEWYLQKPGQSPQLLIYKVSNRFSGVPDRFSGSGSGTDFTLKISRVEAEDVGVYYCFQGSHVFLTFGQGTKLEIK
notes: as the heavy chain of Sm3; light chain of Sm3 with this change; numbers count from the chain's first residue; source: Brevibacillus, culture supernatant (ammonium sulfate precipitate); not shown: 6xHis, C-terminal, kept; 6xHN, C-terminal, kept
B2: toripalimab Fab L.P100N (Fab, V domains shown)
VH: B1 VH
VL: B1 VL with F100N
notes: as for B1
B3: toripalimab Fab L.P100M (Fab, V domains shown)
VH: B1 VH
VL: B1 VL with F100M
notes: as for B1
B4: toripalimab Fab L.P100K (Fab, V domains shown)
VH: B1 VH
VL: B1 VL with F100K
notes: as for B1
B5: toripalimab Fab H.S53A (Fab, V domains shown)
VH: B1 VH with S53A
VL: B1 VL with F100P
notes: heavy chain of Sm3 with this change; numbers count from the chain's first residue; as the light chain of Sm3; source: Brevibacillus, culture supernatant (ammonium sulfate precipitate); not shown: 6xHis, C-terminal, kept; 6xHN, C-terminal, kept
B6: toripalimab Fab L.P100L (Fab, V domains shown)
VH: B1 VH
VL: B1 VL with F100L
notes: as for B1
B7: toripalimab Fab L.P100H (Fab, V domains shown)
VH: B1 VH
VL: B1 VL with F100H
notes: as for B1
B8: toripalimab Fab L.P100G (Fab, V domains shown)
VH: B1 VH
VL: B1 VL with F100G
notes: as for B1
B9: toripalimab Fab L.P100I (Fab, V domains shown)
VH: B1 VH
VL: B1 VL with F100I
notes: as for B1

T1 sequence (Q15116 24-167 C93S): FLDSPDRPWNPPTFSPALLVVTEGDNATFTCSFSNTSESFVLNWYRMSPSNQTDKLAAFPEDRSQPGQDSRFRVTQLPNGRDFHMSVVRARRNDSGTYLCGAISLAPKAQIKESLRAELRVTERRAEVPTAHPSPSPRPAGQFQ

One assay has as its target T1, human programmed cell death protein 1 (hPD-1) C93S (aa 24-167) (Homo sapiens, UniProt Q15116, C93S).
T1 construct: made as a fusion with a TEV site and human Fc; the Fc was cut off with TEV protease; source: Expi293F, purified (Protein A, TEV cleavage of Fc, SEC; monomer fractions); not shown: Fc (human), C-terminal, cleaved
In words: SPR; Carterra LSA; Fab from the ammonium sulfate precipitate of the culture supernatant immobilised on a NiHC200M chip; hPD-1 (1-1024 nM) or mPD-1-Fc (4-1024 nM) as analyte, fourfold dilution series, no regeneration; HBS-EP pH 7.4, 25 °C; medians over the spots of a construct, KD = koff/kon. The note with it: one partner purified. Put shortly:
(§1)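 Fabs from Brevibacillus culture supernatants were ammonium sulfate-precipitated, redissolved in HBS-EP and captured in duplicate on a NiHC200M chip (Carterra LSA, 25 °C). Human PD-1 (1–1024 nM) or mouse PD-1-Fc (4–1024 nM) flowed as fourfold series without regeneration, with 10 min association and 5 min dissociation; unconfirmed binders were set to kon 10^3 […], koff 10^−2 s^−1. Rates came from kdka model fits (slow- or fast-dissociation settings, best fit); KD is koff/kon from per-construct medians.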
What is called Kd is the equilibrium constant for the complex coming apart. As usually defined, the koff is a measure of how fast the partners let go of each other. A low value points to a long-lived complex. Broadly, the kon is the rate constant with which the complex forms. High values mean faster complex formation, low ones slower complex formation. Turning to B1, binding was characterised by a dissociation constant (Kd) of 9 nM, the koff was 6.35e-05 s⁻¹ and the kon was 7060 M⁻¹ s⁻¹.

As to B2, the Kd is 1.39 nM, the koff came out at 2.33e-05 s⁻¹ and the kon is 16800 M⁻¹ s⁻¹.

The molecule B3 displayed a Kd of 3.81 nM, a koff of 5.38e-05 s⁻¹ and a kon of 14100 M⁻¹ s⁻¹.

With B4, the equilibrium dissociation constant (Kd) worked out at 7.78 nM, the dissociation rate constant (koff) was 5.19e-05 s⁻¹ and the kon is 6670 M⁻¹ s⁻¹.

On to B5, for which the Kd was below 1.27 nM, the koff is below 1e-05 s⁻¹ and the on-rate constant (kon) worked out at 7880 M⁻¹ s⁻¹.

In turn, B6 had a Kd of 13.8 nM, a koff of 0.000129 s⁻¹ and a kon of 9280 M⁻¹ s⁻¹.

As for B7, the Kd turned out to be 2.24 nM, the koff was 1.56e-05 s⁻¹ and the kon was 6960 M⁻¹ s⁻¹.

B8 gave a Kd of 4.99 nM, a koff of 3.76e-05 s⁻¹ and an association rate constant (kon) of 7550 M⁻¹ s⁻¹.

As for B9, the Kd worked out at 12.3 nM, the koff came to 8.88e-05 s⁻¹ and the kon worked out at 7200 M⁻¹ s⁻¹.

The target in another assay is T2, mouse programmed cell death protein 1 Fc fusion protein (mPD-1-Fc), mPD-1 C60S (aa 25-167) (Mus musculus, UniProt Q02242, stabilised).
T2 construct: not cleaved; source: Expi293F, purified (Protein A, SEC; dimeric fraction); not shown: Fc (human), C-terminal, kept
Described as above. The note with it: one partner purified. The essentials: as §1
As to B1, the Kd is below 1.08 nM, the koff was below 1e-05 s⁻¹ and the kon is 9270 M⁻¹ s⁻¹.

B2: the Kd came to 15.9 nM, the koff came out at 0.0003 s⁻¹ and the kon amounted to 18900 M⁻¹ s⁻¹.

Turning to B3, the Kd worked out at 8.48 nM, the koff was found to be 0.000121 s⁻¹ and the kon is 14200 M⁻¹ s⁻¹.

Consider B4, for which the affinity, expressed as Kd, was 60.6 nM; the koff is 0.000824 s⁻¹; the kon was 13600 M⁻¹ s⁻¹.

In turn, B5 returned a Kd of 94 nM, a koff of 0.00411 s⁻¹ and a kon of 43700 M⁻¹ s⁻¹.

Regarding B6, the dissociation constant (Kd) was 9.99 nM, the off-rate constant (koff) came out at 0.000147 s⁻¹ and the kon came to 14700 M⁻¹ s⁻¹.

The molecule B7 yielded a Kd below 1.06 nM, a koff below 1e-05 s⁻¹ and a kon of 9460 M⁻¹ s⁻¹.

Regarding B8, binding was characterised by a dissociation constant (Kd) of 22.8 nM, the koff was found to be 0.000384 s⁻¹ and the kon is 16800 M⁻¹ s⁻¹.

Turning to B9, the Kd turned out to be 23.2 nM, the koff is 0.000324 s⁻¹ and the kon was determined as 13900 M⁻¹ s⁻¹.
